The experiment deals with T1, human recombinant Flag-DAXX protein (human, UniProt Q9UER7 1-740).
T1 construct: DAXX (death-domain associated protein), human, recombinant; Commercial protein; no catalogue number is printed in the main text; source: bought: OriGene Technologies (recombinant protein)
As to the kind of experiment: pull-down; 50 ng His-PTEN immobilised on 30 ul nickel beads, incubated with 200 ng Flag-DAXX for 2 h at 4 °C; bound proteins eluted and immunoblotted (the legend says IP anti-PTEN, IB anti-Flag). As to conditions: both partners purified.

The values that follow come from paper PMC5437297, “PTEN regulates glioblastoma oncogenesis through chromatin-associated complexes of DAXX and histone H3.3” (Nature Communications, 2017).

T1 sequence (Q9UER7 whole entry): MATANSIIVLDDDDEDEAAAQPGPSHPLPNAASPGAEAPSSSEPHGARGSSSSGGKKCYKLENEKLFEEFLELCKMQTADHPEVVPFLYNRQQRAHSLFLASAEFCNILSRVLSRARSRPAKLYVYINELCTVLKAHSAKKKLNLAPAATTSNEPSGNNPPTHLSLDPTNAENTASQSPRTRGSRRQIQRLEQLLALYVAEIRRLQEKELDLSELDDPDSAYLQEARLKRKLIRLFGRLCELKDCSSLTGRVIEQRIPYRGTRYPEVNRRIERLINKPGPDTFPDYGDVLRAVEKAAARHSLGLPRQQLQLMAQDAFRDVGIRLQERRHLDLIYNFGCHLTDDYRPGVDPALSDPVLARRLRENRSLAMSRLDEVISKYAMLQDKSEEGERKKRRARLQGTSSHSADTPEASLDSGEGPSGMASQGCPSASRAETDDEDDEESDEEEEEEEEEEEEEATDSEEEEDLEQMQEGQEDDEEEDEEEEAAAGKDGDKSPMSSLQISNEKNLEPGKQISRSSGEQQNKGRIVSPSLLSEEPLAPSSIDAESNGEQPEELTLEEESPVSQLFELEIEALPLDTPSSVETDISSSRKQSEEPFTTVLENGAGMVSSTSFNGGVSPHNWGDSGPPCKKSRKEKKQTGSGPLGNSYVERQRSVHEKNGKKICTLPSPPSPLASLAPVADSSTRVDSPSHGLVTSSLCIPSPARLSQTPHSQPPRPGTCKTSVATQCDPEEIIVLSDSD

B1: human recombinant His-PTEN (natural protein)
chain: not shown
notes: PTEN (phosphatase and tensin homolog), human, recombinant; Commercial protein; no catalogue number is printed in the main text (reagents are in the Supplementary Methods); source: bought: ENZO Life Science (recombinant protein)
B1: the binding result is reported as “binds”.
